These are literature values, as cited in publication PMC8472222.

Some results are limits rather than exact numbers.

By Kd is commonly meant the free concentration of one partner at which half of the binding sites on the other are occupied at equilibrium, for simple one-to-one binding.

This data set has as its target Rad57 (Saccharomyces cerevisiae) (UniProt P25301).
UniProt P25301, sequence (P25301 whole entry): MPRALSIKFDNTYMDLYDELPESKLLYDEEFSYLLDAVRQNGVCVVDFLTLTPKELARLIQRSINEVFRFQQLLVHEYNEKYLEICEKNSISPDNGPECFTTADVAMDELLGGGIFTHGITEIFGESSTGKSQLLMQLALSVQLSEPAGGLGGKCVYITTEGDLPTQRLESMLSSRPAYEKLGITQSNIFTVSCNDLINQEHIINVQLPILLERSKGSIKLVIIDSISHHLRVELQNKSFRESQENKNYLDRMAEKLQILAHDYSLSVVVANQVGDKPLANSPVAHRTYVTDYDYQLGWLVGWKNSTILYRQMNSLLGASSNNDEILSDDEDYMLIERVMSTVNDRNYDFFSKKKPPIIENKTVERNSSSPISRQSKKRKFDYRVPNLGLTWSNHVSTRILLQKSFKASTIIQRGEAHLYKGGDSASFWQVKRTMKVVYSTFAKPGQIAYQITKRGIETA

As to Rad55 (from UniProt P38953), the Kd is less than 0.2 nM.
